For nine molecules, specificity for CFH over CFHR3 (fold) and Kd results are on record in publication PMC4273445 (eLife, 2014).

Residue numbers refer to the chain shown, from its start. Values joined by “and” are separate entries in the source; they are usually repeats but may differ in a detail not shown here. Equal values may be shown once.

To fix the notation:
T1: CFHR3_(12), the first two (N-terminal) CCP domains of complement factor H-related 3 (human, UniProt Q02985 19-330)
T1 construct: also called CFHR12
T1 sequence: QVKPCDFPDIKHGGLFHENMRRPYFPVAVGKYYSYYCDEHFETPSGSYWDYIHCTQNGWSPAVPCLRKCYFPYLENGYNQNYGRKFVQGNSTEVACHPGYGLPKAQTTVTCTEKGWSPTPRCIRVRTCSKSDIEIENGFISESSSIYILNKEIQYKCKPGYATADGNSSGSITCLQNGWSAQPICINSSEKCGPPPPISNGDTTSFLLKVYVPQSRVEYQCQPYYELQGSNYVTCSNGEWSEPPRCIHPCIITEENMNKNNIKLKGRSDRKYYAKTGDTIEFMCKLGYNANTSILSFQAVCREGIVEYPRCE

T2: factor H binding protein (fHbp) V1.1 (N. meningitidis, UniProt Q9JXV4 20-274)
T2 construct: fHbp variant 1.1; source: recombinant, as in Johnson et al., 2012
T2 sequence: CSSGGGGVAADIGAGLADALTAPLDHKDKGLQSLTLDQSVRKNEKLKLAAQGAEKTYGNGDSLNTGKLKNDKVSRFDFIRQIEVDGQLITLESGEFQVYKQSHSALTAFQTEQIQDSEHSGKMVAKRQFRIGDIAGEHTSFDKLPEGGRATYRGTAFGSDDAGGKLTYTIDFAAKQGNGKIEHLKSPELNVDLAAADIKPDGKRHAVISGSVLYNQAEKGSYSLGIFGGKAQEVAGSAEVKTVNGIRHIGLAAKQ

T3: factor H binding protein (fHbp) V3.28, recombinant His-tagged (Neisseria meningitidis, UniProt E6MV22 20-274)
T3 chain: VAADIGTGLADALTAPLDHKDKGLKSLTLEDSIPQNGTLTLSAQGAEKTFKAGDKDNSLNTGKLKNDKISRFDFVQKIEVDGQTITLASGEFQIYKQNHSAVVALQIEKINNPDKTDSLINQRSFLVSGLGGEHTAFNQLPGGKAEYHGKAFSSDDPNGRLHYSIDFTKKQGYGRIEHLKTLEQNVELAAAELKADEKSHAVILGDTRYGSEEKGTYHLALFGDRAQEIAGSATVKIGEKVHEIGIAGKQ

B1: fHbp V2.21 Val (at V1 Val272) to Ala (natural protein)
chain: VAADIGAGLADALTAPLDHKDKSLQSLTLDQSVRKNEKLKLAAQGAEKTYGNGDSLNTGKLKNDKVSRFDFIRQIEVDGQLITLESGEFQIYKQDHSAVVALQIEKINNPDKIDSLINQRSFLVSGLGGEHTAFNQLPSGKAEYHGKAFSSDDPNGRLHYSIDFTKKQGYGRIEHLKTPEQNVELASAELKADEKSHAAILGDTRYGSEEKGTYHLALFGDRAQEIAGSATVKIREKVHEIGIAGKQ
B2: CFH67, CCP domains 6 and 7 of complement factor H (domain or fragment)
chain: TLKPCDYPDIKHGGLYHENMRRPYFPVAVGKYYSYYCDEHFETPSGSYWDHIHCTQDGWSPAVPCLRKCYFPYLENGYNQNYGRKFVQGKSIDVACHPGYALPKAQTTVTCMENGWSPTPRCI
notes: source: prepared as previously described (Prosser et al., 2007)
B3: fHbp V2.21 Gln (at V1 Lys191) to Ala (natural protein)
chain: MGPDSDRLQQRRVAADIGAGLADALTAPLDHKDKSLQSLTLDQSVRKNEKLKLAAQGAEKTYGNGDSLNTGKLKNDKVSRFDFIRQIEVDGQLITLESGEFQIYKQDHSAVVALQIEKINNPDKIDSLINARSFLVSGLGGEHTAFNQLPSGKAEYHGKAFSSDDPNGRLHYSIDFTKKQGYGRIEHLKTPEQNVELASAELKADEKSHAVILGDTRYGSEEKGTYHLALFGDRAQEIAGSATVKIREKVHEIGIAGKQLEHHHHHH
B4: fHbp V3.28 Val (at V1 Val272) to Ala (natural protein)
chain: T3 chain with V202A
B5: complement factor-H related 3 (CFHR3), full length, recombinant His-tagged, Q02985 19-330 (natural protein)
chain: T1 sequence
B6: CFHR3_(12), the first two (N-terminal) CCP domains of complement factor H-related 3, Q02985 19-330 (domain or fragment)
chain: T1 sequence
B7: complement factor-H related 3 (CFHR3), full length, recombinant His-tagged (natural protein)
chain: T1 sequence
B8: CFHR3_(12), the first two CCP domains of CFHR3 (domain or fragment)
chain: KPCDFPDIKHGGLFHENMRRPYFPVAVGKYYSYYCDEHFETPSGSYWDYIHCTQNGWSPAVPCLRKCYFPYLENGYNQNYGRKFVQGNSTEVACHPGYGLPKAQTTVTCTEKGWSPTPRCIR

In assay [1] the target is fHbp V1.1, recombinant His-tagged (Neisseria meningitidis) (UniProt Q9JXV4). Nature of the assay: SPR.
In assay [2] the target is T1, CFHR3_(12), the first two (N-terminal) …. Briefly: SPR. Conditions: both partners purified.
Assay [3] addresses factor H binding protein (fHbp) V3.28 (N. meningitidis, UniProt E6MV22 20-274). Briefly: SPR. Conditions: both partners purified.
In assay [4] the target is T2, factor H binding protein (fHbp) V1.1. Nature of the assay: SPR. Conditions: both partners purified.
Assay [5] addresses B2. Briefly: SPR. The note with it: both partners purified.
Assay [6] has as its target B2. Briefly: SPR. The note with it: both partners purified. This is another data set of the same source.
Assay [7] has as its target T1, CFHR3_(12), the first two (N-terminal) …. Nature of the assay: SPR. The note with it: both partners purified. The source holds these as a separate data set.
Assay [8] has as its target factor H binding protein (fHbp) V3.28, recombinant His-tagged (Neisseria meningitidis), E6MV22. Briefly: MST.
Assay [9] concerns the target factor H binding protein (fHbp) V3.28 (N. meningitidis), E6MV22. Nature of the assay: SPR.
Assay [10] concerns the target T3, factor H binding protein (fHbp) V3.28, …. Nature of the assay: MST.
Assay [11] has the same target. Briefly: SPR.

“CFHR3_(12), the first two CCP domains of CFHR3 (domain or fragment)”: the specificity for CFH over CFHR3 (fold) in [1] was 20 fold.
With B1, the Kd (as a rule, the constant that tells how readily two partners part at equilibrium) in assay [2] worked out at 63.5 nM.
Consider B2, for which the equilibrium dissociation constant (Kd) in assay [3] is 2.74 nM and 2.46 nM and 3.17 nM; in assay [4] it was 3.56 nM.
With B3, the Kd in assay [5] was found to be 3.02 nM; in assay [2], 2.85 nM.
B4: the figures for the Kd in [6] and in assay [7] were 25.3 nM and 42 nM, respectively.
With B5, the Kd in [8] was 3 nM.
On to B6, for which the Kd in [9] was 4.08 nM and 4 nM and 4.25 nM.
Consider B7, for which, in assay [10], the Kd stood at 9 nM.
For the molecule B8, in assay [11], the Kd was 4 nM.
